T1: FcγRIIb extracellular domain with C-terminal His tag (human, UniProt P31994 43-217)
T1 construct: extracellular domain; also called FcgRIIb; 2b; not shown: His tag at the C terminus
T1 sequence (looked up): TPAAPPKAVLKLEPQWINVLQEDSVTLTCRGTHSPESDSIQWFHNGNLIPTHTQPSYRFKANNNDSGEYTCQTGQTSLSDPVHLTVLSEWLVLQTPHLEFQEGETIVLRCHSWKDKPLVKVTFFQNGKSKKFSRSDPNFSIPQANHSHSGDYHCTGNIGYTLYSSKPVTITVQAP

T2: FcγRIIa R (human FcγRIIa, allotype R, Arg at position 131), extracellular domain with C-terminal His tag (human, UniProt P12318 34-217)
T2 construct: extracellular domain; expressed in FreeStyle293 cells; analyte in Biacore; also called 2aR; FcgRIIa R
T2 sequence (looked up): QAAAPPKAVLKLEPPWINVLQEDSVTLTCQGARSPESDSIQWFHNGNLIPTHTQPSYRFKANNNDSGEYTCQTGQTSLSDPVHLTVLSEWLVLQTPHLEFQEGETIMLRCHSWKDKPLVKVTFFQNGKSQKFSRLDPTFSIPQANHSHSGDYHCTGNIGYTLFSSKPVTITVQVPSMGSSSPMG

B1: GpH7-A5/GpH7-B3 variant S324_11K/GpL16-k0 (antibody, human IgG1, kappa)
heavy 1: not shown
heavy 2: not shown
light: DIVMTQSPLSLPVTPGEPASISCQASESLVHSNRNTYLHWYLQKPGQSPQLLIYKVSNRFSGVPDRFSGSGSGTDFTLKISRVEAEDVGVYYCSQNTHVPPTFGQGTKVEIERTVAAPSVFIFPPSDEQLKSGTASVVCLLNNFYPREAKVQWKVDNALQSGNSQESVTEQDSKDSTYSLSSTLTLSKADYEKHKVYACEVTHQGLSSPVTKSFNRGEC
notes: position is EU numbering; also called He Ab
B2: GpH7-A5/GpH7-B3 variant S324_12R/GpL16-k0 (antibody, human IgG1, kappa)
heavy 1: not shown
heavy 2: not shown
light: B1 light
notes: as for B1
B3: GpH7-A5/GpH7-B3 variant Y300_13S/GpL16-k0 (antibody, human IgG1, kappa)
heavy 1: not shown
heavy 2: not shown
light: B1 light
notes: as for B1
B4: GpH7-A5/GpH7-B3 variant Y296_20W/GpL16-k0 (antibody, human IgG1, kappa)
heavy 1: not shown
heavy 2: not shown
light: B1 light
notes: as for B1
B5: GpH7-A5/GpH7-B3 variant Y300_08L/GpL16-k0 (antibody, human IgG1, kappa)
heavy 1: not shown
heavy 2: not shown
light: B1 light
notes: as for B1
B6: GpH7-A5/GpH7-B3 variant Y300_14T/GpL16-k0 (antibody, human IgG1, kappa)
heavy 1: not shown
heavy 2: not shown
light: B1 light
notes: as for B1
B7: GpH7-A5/GpH7-B3 variant Y300_01G/GpL16-k0 (antibody, human IgG1, kappa)
heavy 1: not shown
heavy 2: not shown
light: B1 light
notes: as for B1
B8: GpH7-A5/GpH7-B3 variant S324_19Q/GpL16-k0 (antibody, human IgG1, kappa)
heavy 1: not shown
heavy 2: not shown
light: B1 light
notes: as for B1
B9: GpH7-A5/GpH7-B3 variant S324_16H/GpL16-k0 (antibody, human IgG1, kappa)
heavy 1: not shown
heavy 2: not shown
light: B1 light
notes: as for B1
B10: GpH7-A5/GpH7-B3 variant Y300_07I/GpL16-k0 (antibody, human IgG1, kappa)
heavy 1: not shown
heavy 2: not shown
light: B1 light
notes: as for B1
B11: GpH7-A5/GpH7-B3 variant P331_06M/GpL16-k0 (antibody, human IgG1, kappa)
heavy 1: not shown
heavy 2: not shown
light: B1 light
notes: heterodimerized antibody, mutation in one H chain only; also called He Ab
B12: GpH7-A5/GpH7-B3 variant S337_12R/GpL16-k0 (antibody, human IgG1, kappa)
heavy 1: not shown
heavy 2: not shown
light: B1 light
notes: as for B11
B13: GpH7-A5/GpH7-B3 variant S239_06M/GpL16-k0 (antibody, human IgG1, kappa)
heavy 1: not shown
heavy 2: not shown
light: B1 light
notes: as for B11
B14: GpH7-A5/GpH7-B3 variant S239_05P/GpL16-k0 (antibody, human IgG1, kappa)
heavy 1: not shown
heavy 2: not shown
light: B1 light
notes: as for B11
B15: GpH7-A5/GpH7-B3 variant S239_07I/GpL16-k0 (antibody, human IgG1, kappa)
heavy 1: not shown
heavy 2: not shown
light: B1 light
notes: as for B11
B16: GpH7-A5/GpH7-B3 variant P331_09D/GpL16-k0 (antibody, human IgG1, kappa)
heavy 1: not shown
heavy 2: not shown
light: B1 light
notes: as for B11
B17: GpH7-A5/GpH7-B3 variant S337_04F/GpL16-k0 (antibody, human IgG1, kappa)
heavy 1: not shown
heavy 2: not shown
light: B1 light
notes: as for B11
B18: GpH7-A5/GpH7-B3 variant P331_18N/GpL16-k0 (antibody, human IgG1, kappa)
heavy 1: not shown
heavy 2: not shown
light: B1 light
notes: as for B11
B19: GpH7-A5/GpH7-B3 variant T335_01G/GpL16-k0 (antibody, human IgG1, kappa)
heavy 1: not shown
heavy 2: not shown
light: B1 light
notes: as for B11
B20: GpH7-A5/GpH7-B3 variant T335_12R/GpL16-k0 (antibody, human IgG1, kappa)
heavy 1: not shown
heavy 2: not shown
light: B1 light
notes: as for B11
B21: GpH7-A5/GpH7-B3 variant S337_09D/GpL16-k0 (antibody, human IgG1, kappa)
heavy 1: not shown
heavy 2: not shown
light: B1 light
notes: as for B11
B22: GpH7-A5/GpH7-B3 variant T335_02A/GpL16-k0 (antibody, human IgG1, kappa)
heavy 1: not shown
heavy 2: not shown
light: B1 light
notes: as for B11
B23: GpH7-A5/GpH7-B3 variant S337_07I/GpL16-k0 (antibody, human IgG1, kappa)
heavy 1: not shown
heavy 2: not shown
light: B1 light
notes: as for B11
B24: GpH7-A5/GpH7-B3 variant T335_10E/GpL16-k0 (antibody, human IgG1, kappa)
heavy 1: not shown
heavy 2: not shown
light: B1 light
notes: as for B11
B25: GpH7-A5/GpH7-B3 variant S337_16H/GpL16-k0 (antibody, human IgG1, kappa)
heavy 1: not shown
heavy 2: not shown
light: B1 light
notes: as for B11
B26: GpH7-A5/GpH7-B3 variant P331_10E/GpL16-k0 (antibody, human IgG1, kappa)
heavy 1: not shown
heavy 2: not shown
light: B1 light
notes: as for B11
B27: GpH7-A5/GpH7-B3 variant S337_19Q/GpL16-k0 (antibody, human IgG1, kappa)
heavy 1: not shown
heavy 2: not shown
light: B1 light
notes: as for B11
B28: GpH7-A5/GpH7-B3 variant S337_10E/GpL16-k0 (antibody, human IgG1, kappa)
heavy 1: not shown
heavy 2: not shown
light: B1 light
notes: as for B11
B29: GpH7-A5/GpH7-B3 variant Q295_10E/GpL16-k0 (antibody, human IgG1, kappa)
heavy 1: not shown
heavy 2: not shown
light: B1 light
notes: as for B11
B30: GpH7-A5/GpH7-B3 variant S337_08L/GpL16-k0 (antibody, human IgG1, kappa)
heavy 1: not shown
heavy 2: not shown
light: B1 light
notes: as for B11
B31: GpH7-A5/GpH7-B3 variant P331_13S/GpL16-k0 (antibody, human IgG1, kappa)
heavy 1: not shown
heavy 2: not shown
light: B1 light
notes: as for B11
B32: GpH7-A5/GpH7-B3 variant S337_11K/GpL16-k0 (antibody, human IgG1, kappa)
heavy 1: not shown
heavy 2: not shown
light: B1 light
notes: as for B11
B33: GpH7-A5/GpH7-B3 variant T335_07I/GpL16-k0 (antibody, human IgG1, kappa)
heavy 1: not shown
heavy 2: not shown
light: B1 light
notes: as for B11
B34: GpH7-A5/GpH7-B3 variant P331_14T/GpL16-k0 (antibody, human IgG1, kappa)
heavy 1: not shown
heavy 2: not shown
light: B1 light
notes: as for B11
B35: GpH7-A5/GpH7-B3 variant T335_05P/GpL16-k0 (antibody, human IgG1, kappa)
heavy 1: not shown
heavy 2: not shown
light: B1 light
notes: as for B11
B36: GpH7-A5/GpH7-B3 variant S337_18N/GpL16-k0 (antibody, human IgG1, kappa)
heavy 1: not shown
heavy 2: not shown
light: B1 light
notes: as for B11
B37: GpH7-A5/GpH7-B3 variant S337_03V/GpL16-k0 (antibody, human IgG1, kappa)
heavy 1: not shown
heavy 2: not shown
light: B1 light
notes: as for B11
B38: GpH7-A5/GpH7-B3 variant P331_07I/GpL16-k0 (antibody, human IgG1, kappa)
heavy 1: not shown
heavy 2: not shown
light: B1 light
notes: as for B11
B39: GpH7-A5/GpH7-B3 variant S337_15Y/GpL16-k0 (antibody, human IgG1, kappa)
heavy 1: not shown
heavy 2: not shown
light: B1 light
notes: as for B11
B40: GpH7-A5/GpH7-B3 variant S337_20W/GpL16-k0 (antibody, human IgG1, kappa)
heavy 1: not shown
heavy 2: not shown
light: B1 light
notes: as for B11
B41: GpH7-A5/GpH7-B3 variant P331_08L/GpL16-k0 (antibody, human IgG1, kappa)
heavy 1: not shown
heavy 2: not shown
light: B1 light
notes: as for B11
B42: GpH7-A5/GpH7-B3 variant Q295_06M/GpL16-k0 (antibody, human IgG1, kappa)
heavy 1: not shown
heavy 2: not shown
light: B1 light
notes: as for B11
B43: GpH7-A5/GpH7-B3 variant S239_14T/GpL16-k0 (antibody, human IgG1, kappa)
heavy 1: not shown
heavy 2: not shown
light: B1 light
notes: as for B11
B44: GpH7-A5/GpH7-B3 variant S337_06M/GpL16-k0 (antibody, human IgG1, kappa)
heavy 1: not shown
heavy 2: not shown
light: B1 light
notes: as for B11

Each binder was assayed against T1, FcγRIIb extracellular domain with … (assay: SPR (Biacore), antibody captured, FcγR as analyte; He Ab binding / GpH7-A5/GpH7-B3/GpL16-k0 binding x 100).

Row | He/Con_2b (IIb binding) | Binder
1 | 68.6 relative, control = 100 | B1
2 | 63.1 relative, control = 100 | B2
3 | 53.9 relative, control = 100 | B3
4 | 103 relative, control = 100 | B4
5 | 73.6 relative, control = 100 | B5
6 | 55.6 relative, control = 100 | B6
7 | 48.4 relative, control = 100 | B7
8 | 66.8 relative, control = 100 | B8
9 | 83.5 relative, control = 100 | B9
10 | 74.5 relative, control = 100 | B10

Each binder was assayed against T3, FcγRIIIa extracellular domain with C-terminal His tag (human, UniProt P08637 17-208) in the same assay as above.
T3 construct: extracellular domain; also called FcgRIIIa; 3a; not shown: His tag at the C terminus
T3 sequence (P08637 17-208): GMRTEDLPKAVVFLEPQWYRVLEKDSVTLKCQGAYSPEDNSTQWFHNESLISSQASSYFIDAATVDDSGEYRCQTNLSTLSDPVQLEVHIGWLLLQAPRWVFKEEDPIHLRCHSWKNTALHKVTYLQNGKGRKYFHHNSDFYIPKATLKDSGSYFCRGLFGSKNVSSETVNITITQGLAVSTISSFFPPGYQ

Row | He/Con_3a (IIIa binding) | Binder
11 | 83 relative, control = 100 | B1
12 | 90.3 relative, control = 100 | B2
13 | 73.9 relative, control = 100 | B3
14 | 135 relative, control = 100 | B4
15 | 105 relative, control = 100 | B5
16 | 85.4 relative, control = 100 | B6
17 | 81.6 relative, control = 100 | B7
18 | 88.5 relative, control = 100 | B8
19 | 104 relative, control = 100 | B9
20 | 95.1 relative, control = 100 | B10

These binders were tested against T3, FcγRIIIa extracellular domain with … (assay: SPR (Biacore); ratio of He/Con_3a (FcγRIIIa) to He/Con_2b (FcγRIIb)).
Method in brief: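 SPR, 25 °C, HBS-EP+. Ab captured via immobilized antigen peptide (CM5 amine coupling or SA biotin); FcγR injected as analyte. Regen: 10 mM glycine-HCl pH 1.5.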

Row | He_3a/2b (IIIa/IIb) [ratio] | Binder
21 | 1.21 | B1
22 | 1.43 | B2
23 | 1.37 | B3
24 | 1.31 | B4
25 | 1.43 | B5
26 | 1.53 | B6
27 | 1.69 | B7
28 | 1.33 | B8
29 | 1.24 | B9
30 | 1.28 | B10

What follows are binders tested against T2, FcγRIIa R (human FcγRIIa, allotype R, …) (assay: SPR (Biacore), relative binding vs GpH7-A5/GpH7-B3/GpL16-k0).
Procedure: Analysis of interaction between objective antibody and the FcγR was carried out using Biacore T100 (GE Healthcare). HBS-EP+ (GE Healthcare) was used as the running buffer, and the measurement temperature was set to 25° C. Chips produced by immobilizing the antigen peptide by the amine coupling method to a Series S Sencor Chip CM5 (GE Healthcare), or alternatively, chips produced by allowing preliminarily biotinylated antigen peptides to interact with and immobilize onto a Series S Sensor Chip SA (certified) (GE Healthcare) were used. Antibodies of interest were captured onto an antigen peptide-immobilized chip, and allowed to interact to each FcγR diluted with running buffer. To regenerate and repeatedly use the chip, the antibodies captured on the chip were washed off by reacting 10 mM glycine-HCl, pH 1.5.
The FcγR-binding activity of each antibody was assessed primarily using as an indicator the FcγR-binding activity and dissociation constant for FcγR.

Row | He/Con_2aR | Binder
31 | 106 relative, control = 100 | B11
32 | 107 relative, control = 100 | B12
33 | 101 relative, control = 100 | B13
34 | 106 relative, control = 100 | B14
35 | 102 relative, control = 100 | B15
36 | 102 relative, control = 100 | B16
37 | 105 relative, control = 100 | B17
38 | 105 relative, control = 100 | B18
39 | 104 relative, control = 100 | B19
40 | 100 relative, control = 100 | B20
41 | 115 relative, control = 100 | B21
42 | 102 relative, control = 100 | B22
43 | 109 relative, control = 100 | B23
44 | 111 relative, control = 100 | B24
45 | 109 relative, control = 100 | B25
46 | 113 relative, control = 100 | B26
47 | 106 relative, control = 100 | B27

Row | He/Con_2aR | Binder
48 | 112 relative, control = 100 | B28
49 | 102 relative, control = 100 | B29
50 | 107 relative, control = 100 | B30
51 | 105 relative, control = 100 | B31
52 | 103 relative, control = 100 | B32
53 | 109 relative, control = 100 | B33
54 | 104 relative, control = 100 | B34
55 | 104 relative, control = 100 | B35
56 | 107 relative, control = 100 | B36
57 | 106 relative, control = 100 | B37
58 | 110 relative, control = 100 | B38
59 | 105 relative, control = 100 | B39
60 | 110 relative, control = 100 | B40
61 | 102 relative, control = 100 | B41
62 | 102 relative, control = 100 | B42
63 | 103 relative, control = 100 | B43
64 | 105 relative, control = 100 | B44

Source: patent US20180155451A1 (published 2018)
